The values below come from IntAct's records for PubMed 15634206.

The labels stand for the following.
B1: Regulatory protein NPR4 (Arabidopsis thaliana (Mouse-ear cress)), Q5ICL9 (parent)
chain: MAATAIEPSSSISFTSSHLSNPSPVVTTYHSAANLEELSSNLEQLLTNPDCDYTDAEIIIEEEANPVSVHRCVLAARSKFFLDLFKKDKDSSEKKPKYQMKDLLPYGNVGREAFLHFLSYIYTGRLKPFPIEVSTCVDSVCAHDSCKPAIDFAVELMYASFVFQIPDLVSSFQRKLRNYVEKSLVENVLPILLVAFHCDLTQLLDQCIERVARSDLDRFCIEKELPLEVLEKIKQLRVKSVNIPEVEDKSIERTGKVLKALDSDDVELVKLLLTESDITLDQANGLHYAVAYSDPKVVTQVLDLDMADVNFRNSRGYTVLHIAAMRREPTIIIPLIQKGANASDFTFDGRSAVNICRRLTRPKDYHTKTSRKEPSKYRLCIDILEREIRRNPLVSGDTPTCSHSMPEDLQMRLLYLEKRVGLAQLFFPAEANVAMDVANVEGTSECTGLLTPPPSNDTTENLGKVDLNETPYVQTKRMLTRMKALMKTVETGRRYFPSCYEVLDKYMDQYMDEEIPDMSYPEKGTVKERRQKRMRYNELKNDVKKAYSKDKVARSCLSSSSPASSLREALENPT
partner: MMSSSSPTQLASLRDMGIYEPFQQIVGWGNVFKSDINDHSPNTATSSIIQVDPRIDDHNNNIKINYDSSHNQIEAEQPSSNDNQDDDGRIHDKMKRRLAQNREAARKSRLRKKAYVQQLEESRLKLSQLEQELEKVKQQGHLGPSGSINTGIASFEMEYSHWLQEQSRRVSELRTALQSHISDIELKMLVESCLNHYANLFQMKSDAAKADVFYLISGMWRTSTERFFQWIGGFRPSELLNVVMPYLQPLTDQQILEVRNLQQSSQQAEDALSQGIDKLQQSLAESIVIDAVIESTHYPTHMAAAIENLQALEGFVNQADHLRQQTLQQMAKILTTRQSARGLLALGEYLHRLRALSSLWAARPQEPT
B2: Regulatory protein NPR4 (Arabidopsis thaliana (Mouse-ear cress)), Q5ICL9 (parent)
chain: B1 chain
partner: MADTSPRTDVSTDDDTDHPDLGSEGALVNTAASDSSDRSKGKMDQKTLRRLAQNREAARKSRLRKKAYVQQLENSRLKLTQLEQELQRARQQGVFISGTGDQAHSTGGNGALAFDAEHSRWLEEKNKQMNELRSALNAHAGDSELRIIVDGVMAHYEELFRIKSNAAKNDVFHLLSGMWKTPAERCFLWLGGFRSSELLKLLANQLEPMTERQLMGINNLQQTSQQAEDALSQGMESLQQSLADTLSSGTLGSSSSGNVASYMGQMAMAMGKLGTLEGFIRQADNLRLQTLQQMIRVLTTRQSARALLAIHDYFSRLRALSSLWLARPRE

The first test covers variants of B1. The settings on record: with tga7_arath TGA7, Q93ZE2.
For the variant H321Y, the “effect of a mutation on the interaction” value was “disrupting interaction”.

Variants of B2 are the subject of another test. Particulars: with tga2_arath TGA2, P43273.
On to H321Y, for which the “effect of a mutation on the interaction” value was “disrupting interaction”.
